Data from US20050124036.

How the values were obtained:
[1] = target: T1, plasminogen according to the present invention (20 mg/ml, Example 8)
T1 chain: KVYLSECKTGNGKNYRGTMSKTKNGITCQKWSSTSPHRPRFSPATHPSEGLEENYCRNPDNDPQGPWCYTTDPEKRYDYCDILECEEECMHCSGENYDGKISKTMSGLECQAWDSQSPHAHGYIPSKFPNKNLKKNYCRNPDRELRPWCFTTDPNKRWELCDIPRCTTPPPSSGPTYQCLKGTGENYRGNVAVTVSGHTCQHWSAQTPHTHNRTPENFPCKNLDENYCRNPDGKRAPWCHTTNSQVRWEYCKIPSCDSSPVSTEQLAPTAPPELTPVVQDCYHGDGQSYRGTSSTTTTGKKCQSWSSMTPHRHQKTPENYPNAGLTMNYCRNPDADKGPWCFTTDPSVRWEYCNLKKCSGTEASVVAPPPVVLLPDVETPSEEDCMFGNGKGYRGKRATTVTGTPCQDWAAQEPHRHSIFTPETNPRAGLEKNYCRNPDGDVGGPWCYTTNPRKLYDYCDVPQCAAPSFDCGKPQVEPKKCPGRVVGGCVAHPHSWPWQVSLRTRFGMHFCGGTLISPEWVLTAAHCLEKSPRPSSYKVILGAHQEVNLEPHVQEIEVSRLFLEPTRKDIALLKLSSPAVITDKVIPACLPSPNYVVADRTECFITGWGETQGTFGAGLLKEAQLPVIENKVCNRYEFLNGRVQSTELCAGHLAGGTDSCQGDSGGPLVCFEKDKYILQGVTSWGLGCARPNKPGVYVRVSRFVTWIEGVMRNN

[2] = target: T2, streptokinase (S8026) (Sigma, Deisenhofen), P00779
T2 chain: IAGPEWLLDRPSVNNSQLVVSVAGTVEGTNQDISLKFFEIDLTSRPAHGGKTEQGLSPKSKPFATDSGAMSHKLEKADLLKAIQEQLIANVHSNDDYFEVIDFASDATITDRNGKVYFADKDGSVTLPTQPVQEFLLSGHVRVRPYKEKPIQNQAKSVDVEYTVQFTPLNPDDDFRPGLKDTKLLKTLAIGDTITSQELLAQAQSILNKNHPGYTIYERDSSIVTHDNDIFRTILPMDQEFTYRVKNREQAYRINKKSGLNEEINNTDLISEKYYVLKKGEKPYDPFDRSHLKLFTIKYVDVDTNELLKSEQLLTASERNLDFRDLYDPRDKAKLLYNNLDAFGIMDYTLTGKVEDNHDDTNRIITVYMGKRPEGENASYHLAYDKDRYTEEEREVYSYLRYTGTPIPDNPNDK

B1: Clostripain (protein)
chain: NKNQKVTIMYYCDADNNLEGSLLNDIEEMKTGYKDSPNLNLIALVDRSPRYSSDEKVLGEDFSDTRLYKIEHNKANRLDGKNEFPEISTTSKYEANMGDPEVLKKFIDYCKSNYEADKYVLIMANHGGGAREKSNPRLNRAICWDDSNLDKNGEADCLYMGEISDHLTEKQSVDLLAFDACLMGTAEVAYQYRPGNGGFSADTLVASSPVVWGPGFKYDKIFDRIKAGGGTNNEDDLTLGGKEQNFDPATITNEQLGALFVEEQRDSTHANGRYDQHLSFYDLKKAESVKRAIDNLAVNLSNENKKSEIEKLRGSGIHTDLMHYFDEYSEGEWVEYPYFDVYDLCEKINKSENFSSKTKDLASNAMNKLNEMIVYSFGDPSNNFKEGKNGLSIFLPNGDKKYSTYYTSTKIPHWTMQSWYNSIDTVKYGLNPYGKLSWCKDGQDPEINKVGNWFELLDSWFDKTNDVTGGVNHYQW
[1]
  plasmin activity after activation: 1.7 U/mg

B2: recombinant human Lys-plasminogen secreted by Pichia pastoris carrying pSM54.2, pAC37.1 or pJW9.1 (alpha-factor prepropeptide joined by a Kex2 and two Ste13 … (protein)
chain: T1 chain
[2]
  plasminogen activity after streptokinase activation, fermentation for 250 h, KM71H/pJW9.1-3: a plasminogen activity of 1375 U/l
  plasminogen activity of culture supernatant after activation with streptokinase, 72 h of induction, KM71H/pSM54.2-1/1: 2 U/l
  plasminogen activity of culture supernatant after activation with streptokinase, 72 h of induction, KM71H/pSM54.2-1/2: 8 U/l
  plasminogen activity of culture supernatant after activation with streptokinase, 72 h of induction, KM71H/pSM54.2-1/3: 6 U/l
  plasminogen activity of culture supernatant after activation with streptokinase, 118 h of induction, KM71H/pSM54.2-1/1: 8 U/l
  plasminogen activity of culture supernatant after activation with streptokinase, 118 h of induction, KM71H/pSM54.2-1/2: 17 U/l
  plasminogen activity of culture supernatant after activation with streptokinase, 118 h of induction, KM71H/pSM54.2-1/3: 13 U/l
  plasminogen activity of culture supernatant after activation with streptokinase, 120 h of induction, KM71/pAC37.1-3/1: an activity of 120 U/l
  plasminogen activity of culture supernatant after activation with streptokinase, 216 h of induction, KM71/pAC37.1-3/1: an activity of 190 U/l
  plasminogen activity of culture supernatant after activation with streptokinase, BSM minimal medium, 120 h of induction, KM71/pAC37.1-3/1: a plasminogen activity of 193 U/l
  plasminogen activity of culture supernatant after activation with streptokinase, BSM minimal medium, 168 h of induction, KM71/pAC37.1-3/1: 289 U/l

B3: recombinant human Lys-plasminogen secreted by Pichia pastoris KM71H/pMHS476.1 (alpha-factor prepropeptide joined by a Kex2 cleavage site) (protein)
chain: T1 chain
[2]
  plasminogen activity of culture supernatant after activation with streptokinase (N-tosyl-Gly-Pro-Lys-pNA conversion), 72 h of induction, KM71H/pMHS476.1-1/1: 2 U/l
  plasminogen activity of culture supernatant after activation with streptokinase (N-tosyl-Gly-Pro-Lys-pNA conversion), 72 h of induction, KM71H/pMHS476.1-1/2: 2 U/l
  plasminogen activity of culture supernatant after activation with streptokinase (N-tosyl-Gly-Pro-Lys-pNA conversion), 72 h of induction, KM71H/pMHS476.1-1/3: 1 U/l
  plasminogen activity of culture supernatant after activation with streptokinase (N-tosyl-Gly-Pro-Lys-pNA conversion), 118 h of induction, KM71H/pMHS476.1-1/1: 7 U/l
  plasminogen activity of culture supernatant after activation with streptokinase (N-tosyl-Gly-Pro-Lys-pNA conversion), 118 h of induction, KM71H/pMHS476.1-1/2: 9 U/l
  plasminogen activity of culture supernatant after activation with streptokinase (N-tosyl-Gly-Pro-Lys-pNA conversion), 118 h of induction, KM71H/pMHS476.1-1/3: 8 U/l
